The record followed here is WO2020135415A1 (dated 2020).

One test has as its target T1, human PD-L1 protein (human, UniProt Q9NZQ7 19-238, limits assumed).
T1 construct: also called hPD-L1; huPD-L1
The test is described as follows: binding to human PD-L1 protein; method not stated.

The next test concerns the target PD-L1 expressed by DC. The test is described as follows: cell-based or functional assay.

PD-L1 expressed by DC, sequence (Q9NZQ7 whole entry): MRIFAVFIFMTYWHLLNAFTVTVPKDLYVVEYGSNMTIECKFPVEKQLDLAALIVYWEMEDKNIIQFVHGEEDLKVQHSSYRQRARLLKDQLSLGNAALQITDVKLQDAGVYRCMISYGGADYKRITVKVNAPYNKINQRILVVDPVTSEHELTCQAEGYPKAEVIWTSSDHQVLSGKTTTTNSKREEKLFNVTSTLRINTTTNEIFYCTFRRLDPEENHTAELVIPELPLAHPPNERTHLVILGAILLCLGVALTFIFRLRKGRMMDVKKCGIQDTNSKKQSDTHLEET
T1 sequence (Q9NZQ7 19-238 limits assumed): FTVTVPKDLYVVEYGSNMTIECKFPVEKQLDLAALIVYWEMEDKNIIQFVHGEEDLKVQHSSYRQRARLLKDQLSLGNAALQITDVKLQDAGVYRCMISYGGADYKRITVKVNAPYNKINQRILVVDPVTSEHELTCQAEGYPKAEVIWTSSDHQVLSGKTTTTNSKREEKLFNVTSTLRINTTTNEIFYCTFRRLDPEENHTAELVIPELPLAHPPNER

B1: hu5G11-hIgG1 (antibody, V domains shown)
VH: QITLKESGPTLVKPTQTLTLTCTVSGFSLSTYGVHWIRQPPGKALEWLGVIWRGVTTDYNAAFMSRLTITKDNSKNQVVLTMNNMDPVDTATYYCARLGFYAMDYWGQGTLVTVSS
VL: DIQMTQSPSSLSASVGDRVTITCKASQSVSNDVAWYQQKPGKAPKLLIYYAANRYTGVPDRFSGSGYGTDFTFTISSLQPEDIATYFCQQDYTSPYTFGQGTKLEIKR
By EC50 is commonly meant the concentration needed to bring the measured effect to its halfway point. The low end stands for higher potency in that assay, the high end for lower potency in that assay. In the test with human PD-L1 protein, B1 had a concentration for a half-maximal effect (EC50) of 0.0213 µg/mL. Further, in the test with PD-L1 expressed by DC, the “secretion of IFN-γ in MLR of CD4+:DC cells, EC50” value stood at 0.035 µg/mL.
